Consider three molecules from article PMC6123778, “Structural rearrangements in the C-terminal domain homolog of Orange Carotenoid Protein are crucial for carotenoid transfer” (Communications Biology, 2018).

As a reminder, the stoichiometry N is a count of units in the complex or per binding partner.

Data set [1] concerns the target Anabaena (Nostoc) PCC 7120 apo-CTDH (carotenoid-free C-terminal domain homolog of Orange Carotenoid Protein) (Anabaena (Nostoc) PCC 7120). The experiment in a line: SEC; apo-AnaCTDH treated with 2 M urea overnight, preparative column, 40 mM Tris-HCl pH 8 with 2 M urea. On the technique in general: In gel filtration, larger molecules generally elute earlier.
Data set [2] shares this target. The experiment in a line: native gel or EMSA; purified apo-AnaCTDH on 15% native polyacrylamide gel, pH 8 (25 mM Tris-HCl, 192 mM glycine), non-reducing. On the technique in general: Mobility shift assays separate free from complexed probe on a gel.
The target in data set [3] is T1, AnaCTDH (CTDH, C-terminal domain homolog of OCP, clade 2) (Nostoc sp. PCC 7120 = FACHB-418, UniProt A0ACD6B996, C103F).
T1 construct: gene all4940; C-terminal His-tag (plasmid pCDF-CTDHAna-C103F), expressed in E. coli; dimer about 34 kDa; the wild type was crystallised in apo form
As to the kind of experiment: absorbance spectra after uptake from canthaxanthin-containing E. coli membranes. The class given is binding. The conditions noted are these: 12 µM apo-dimer, membranes with 48 µM canthaxanthin, 33 °C, 1 h, darkness.

The target in data set [4] is T2, AnaCTDH (CTDH, C-terminal domain homolog of OCP, clade 2) (Nostoc sp. PCC 7120 = FACHB-418, UniProt A0ACD6B996, C103F/DEL126-136).
T2 construct: gene all4940; C-terminal His-tag (plasmid pCDF-CTDHAna-C103F), expressed in E. coli; dimer about 34 kDa; the wild type was crystallised in apo form
The data set is described as above. Particulars: 12 µM apo-dimer, membranes with 48 µM canthaxanthin, 33 °C, 1 h, darkness; C-terminal tail deleted. Format: binding.

Data set [5] concerns the molecule itself. The experiment in a line: SAXS; batch mode, 270 µM per monomer, 20 mM Tris-HCl pH 7.6, 150 mM NaCl, 0.1 mM EDTA, 2 mM dithiothreitol, 3% glycerol.

T1 sequence (A0ACD6B996 entry or part of it C103F): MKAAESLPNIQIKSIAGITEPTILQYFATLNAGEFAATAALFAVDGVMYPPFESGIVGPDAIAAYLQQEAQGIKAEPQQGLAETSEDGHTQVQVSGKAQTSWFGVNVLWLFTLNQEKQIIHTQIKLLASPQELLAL
T2 sequence (A0ACD6B996 entry or part of it C103F/DEL126-136): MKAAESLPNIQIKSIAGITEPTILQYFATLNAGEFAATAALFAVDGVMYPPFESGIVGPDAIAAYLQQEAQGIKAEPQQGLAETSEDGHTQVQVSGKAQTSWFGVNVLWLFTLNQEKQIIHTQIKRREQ

For “Anabaena (Nostoc) PCC 7120 apo-CTDH (carotenoid-free C-terminal domain homolog of Orange Carotenoid Protein) (natural protein)”, the stoichiometry N in data set [1] and in data set [2] was 2 in each case. For `CC1=C(/C=C/C(C)=C/C=C/C(C)=C/C=C/C=C(C)/C=C/C=C(C)/C=C/C2=C(C)C(=O)CCC2(C)C)C(C)(C)CCC1=O` [canthaxanthin], the “% holo-protein formed” value is given as 100% in data set [3] and 20(±5) % in data set [4].

B1: Apo-CTD from Synechocystis OCP (residues 165-317) (domain or fragment, Synechocystis 6803, UniProt P74102 165-317, looked up)
chain: AGKDGKRIAEPVVPPQDTASRTKVSIEGVTNATVLNYMDNLNANDFDTLIELFTSDGALQPPFQRPIVGKENVLRFFREECQNLKLIPERGVTEPAEDGFTQIKVTGKVQTPWFGGNVGMNIAWRFLLNPEGKIFFVAIDLLASPKELLNFAR
notes: C-terminal domain of the Orange Carotenoid Protein of Synechocystis 6803, residues 165-317 (of 317); 18.7 kDa construct with an uncleavable N-terminal hexahistidine tag; carotenoid-free; The SAXS modelling counts 23 flexible N-terminal residues (tag and linker included) and 12 C-terminal ones; also called apo-OCP-CTD; CTD-OCP; not shown: His6, N-terminal, kept
For the molecule B1, in data set [5], the “stoichiometry N” value stood at 2.
